B1: Fab antibody Ab20 (Fab, V domains shown)
VH: EVQLLESGGGLVQPGGSLRLSCAASGFTFSRYGMAWVRQAPGKGLEWVSSIRPSGGYTAYADSVKGRFTISRDNSKNTLYLQMNSLRAEDTAVYYCARLPARFDYYYGLDVWGQGTTVTVSS
VL: DIQMTQSPATLSLSPGERATLSCRASQSVNIYLAWYQQRPGQAPRLLIYDASNRAIGVPARFSGTGSGTDFTLTISSLEPEDSAVYYCQQRDSWPPRLSFGGGTKVEIK
notes: Fab from a phage library
B2: Fab antibody Ab13 (Fab, V domains shown)
VH: EVQLLESGGGLVQPGGSLRLSCAASGFTFSNYTMHWVRQAPGKGLEWVSVIYPSGGMTKYADSVKGRFTISRDNSKNTLYLQMNSLRAEDTAVYYCARGSTTFDYWGQGTLVTVSS
VL: DIQMTQSPGTLSLSPGERATLSCRASQSVRSNYLAWYQQKPGQAPRLLIYGASSRATGIPDRFSGSGSGTDFTLTISRLEPEDFAVYYCQQRSNWPITFGQGTRLEIK
notes: Fab from a phage library
B3: Fab antibody Ab17 (Fab, V domains shown)
VH: EVQLLESGGGLVQPGGSLRLSCAASGFTFSNYTMIWVRQAPGKGLEWVSRIWPSGGGTDYADSVKGRFTISRDNSKNTLYLQMNSLRAEDTATYYCARRVGASRYFDLWGRGTLVTVSS
VL: DIQMTQSPSSLSASVGDRVTVTCRASQNIDNYLNWYQQRPGKAPELLIYAASSLQSGVPSRFSGSGSGTDFTLTISSLQPEDFATYYCQQSYSNSRTFGQGTKVEIK
notes: Fab from a phage library
B4: Fab antibody Ab2 (Fab, V domains shown)
VH: EVQLLESGGGLVQPGGSLRLSCAASGFTFSNYKMGWVRQAPGKGLEWVSWIYPSGGGTFQADSVKGRFTISRDNSKNTLYLQMNSLRAEDTAVYYCARVRVGSTGNFDYWGQGTLVTVSS
VL: DIQMTQSPATLSLSPGERATLYCRASQSVSNYVAWYQQRPGQAPRLLMYDTSKRATGIPARFSGSGSGTDFTLTISSLEPEDFAVYYCQQRSYWFAFGGGTKVEIK
notes: Fab from a phage library
B5: Fab antibody Ab3 (Fab, V domains shown)
VH: EVQLLESGGGLVQPGGSLRLSCAASGFTFSPYNMMWVRQAPGKGLEWVSRISPSGGDTHYADSVKGRFTISRDNSKNTLYLQMNSLRAEDTAVYYCARGSRSSWSTPYYWGQGILVTVSS
VL: QSALTQPPSASGTPGQRVTISCSGSSSNIGNNYVYWYQQLPGTAPKLLIYRSNQRPSGVPDRFSGSKSGASASLAISGLRSEDEADYYCAAWDDSLIGPVFGGGTKLTVL
notes: Fab from a phage library

The test deals with T1, recombinant D4 domain polypeptide of human KIT (V308 to K412, with His tag) (human, UniProt P10721 26-412).
T1 construct: also called D4 domain of human KIT
T1 sequence (P10721 other isoform, or with tags, fused parts or gaps limits assumed): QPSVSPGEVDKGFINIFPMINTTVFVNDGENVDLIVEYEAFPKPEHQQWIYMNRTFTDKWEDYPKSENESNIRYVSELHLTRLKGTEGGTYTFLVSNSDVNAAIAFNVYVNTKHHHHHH
Kind of test: solid phase ELISA, D4 polypeptide coated on plate.
As to B1, the binding result is listed as “binds”.

On to B2, for which the binding result is “binds”.

As to B3, the binding result was “binds”.

As for B4, the binding result is on record as “binds”.

Consider B5, for which the binding result was “binds”.

Values taken from patent US20130011406A1 (KOLLTAN PHARMACEUTICALS, published 2013).
